# In the supplement of paper PMC5998384:
# Key:
# HeLa Kyoto [1] = assay: solubility in G1/S (NP-40 vs SDS abundance) (log2 ratio); higher = more soluble; conditions: cell cycle stage: G1/S
# HeLa Kyoto [2] = assay: melting temperature (median over replicates), in situ; higher = more thermally stable
# HeLa Kyoto [3] = assay: thermal stability score vs G1/S (z-score of summed log2 fold changes over temperatures); higher = more thermally stable than in G1/S
# HeLa Kyoto [4] = assay: solubility change mitosis vs G1/S (difference of NP-40 vs SDS log2 ratios) (log2 ratio difference); higher = more soluble in mitosis
# [5] = cell cycle stage: early G1 (4.5 h after nocodazole release)
# 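Wherever melting temperature (median over replicates), in situ is given: HeLa Kyoto cells synchronized by double thymidine or nocodazole block, proteins quantified by TMT10plex mass spectrometry, three independent biological replicates.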
# 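Wherever solubility change mitosis vs G1/S (difference of NP-40 vs SDS log2 ratios) is given: synchronized HeLa Kyoto cells (double thymidine block for G1/S, nocodazole release for mitosis), protein amounts in NP-40 versus SDS lysates quantified by mass spectrometry, three biological replicates.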
# 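Wherever solubility in G1/S (NP-40 vs SDS abundance) is given: HeLa Kyoto cells arrested at G1/S by double thymidine block, proteins quantified by TMT10plex mass spectrometry in mild NP-40 versus SDS extracts, three biological replicates.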
# 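Wherever thermal stability score vs G1/S (z-score of summed log2 fold changes over temperatures) is given: synchronized HeLa Kyoto cells, proteins quantified by TMT10plex mass spectrometry, three biological replicates, mitosis taken 0.5 h after nocodazole release, G1/S directly after double thymidine block.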
Sequence,solubility in G1/S (log2) (HeLa Kyoto [1]),melting temperature (HeLa Kyoto [2]; cell cycle stage: G1/S) [°C],melting temperature (HeLa Kyoto [2]; cell cycle stage: mitosis) [°C],thermal stability score (HeLa Kyoto [3]; [5]),thermal stability score (HeLa Kyoto [3]; cell cycle stage: mitosis),solubility change mitosis (log2) (HeLa Kyoto [4])
MKSRFSTIDLRAVLAELNASLLGMRVNNVYDVDNKTYLIRLQKPDFKATLLLESGIRIHTTEFEWPKNMMPSSFAMKCRKHLKSRRLVSAKQLGVDRIVDFQFGSDEAAYHLIIELYDRGNIVLTDYEYVILNILRFRTDEADDVKFAVRERYPLDHARAAEPLLTLERLTEIVASAPKGELLKRVLNPLLPYGPALIEHCLLENGFSGNVKVDEKLETKDIEKVLVSLQKAEDYMKTTSNFSGKGYIIQKREIKPSLEADKPVEDILTYEEFHPFLFSQHSQCPYIEFESFDKAVDEFYSKIEGQKIDLKALQQEKQALKKLDNVRKDHENRLEALQQAQEIDKLKGELIEMNLQIVDRAIQVVRSALANQIDWTEIGLIVKEAQAQGDPVASAIKELKLQTNHVTMLLRNPYLLSEEEDDDVDGDVNVEKNETEPPKGKKKKQKNKQLQKPQKNKPLLVDVDLSLSAYANAKKYYDHKRYAAKKTQKTVEAAEKAFKSAEKKTKQTLKEVQTVTSIQKARKVYWFEKFLWFISSENYLIIGGRDQQQNEIIVKRYLTPGDIYVHADLHGATSCVIKNPTGEPIPPRTLTEAGTMALCYSAAWDARVITSAWWVYHHQVSKTAPTGEYLTTGSFMIRGKKNFLPPSYLMMGFSFLFKVDESCVWRHQGERKVRVQDEDMETLASCTSELISEEMEQLDGGDTSSDEDKEEHETPVEVELMTQVDQEDITLQSGRDELNEELIQEESSEDEGEYEEVRKDQDSVGEMKDEGEETLNYPDTTIDLSHLQPQRSIQKLASKEESSNSSDSKSQSRRHLSAKERREMKKKKLPSDSGDLEALEGKDKEKESTVHIETHQNTSKNVAAVQPMKRGQKSKMKKMKEKYKDQDEEDRELIMKLLGSAGSNKEEKGKKGKKGKTKDEPVKKQPQKPRGGQRVSDNIKKETPFLEVITHELQDFAVDDPHDDKEEQDLDQQGNEENLFDSLTGQPHPEDVLLFAIPICAPYTTMTNYKYKVKLTPGVQKKGKAAKTALNSFMHSKEATAREKDLFRSVKDTDLSRNIPGKVKVSAPNLLNVKRK [NEMF],-0.354,50.8,50.2,-0.477,-1.01,-0.0231
MKSYTPYFILLWSAVGIAKAAKIIIVPPIMFESHMYIFKTLASALHERGHHTVFLLSEGRDIAPSNHYSLQRYPGIFNSTTSDAFLQSKMRNIFSGRLTAIELFDILDHYTKNCDLMVGNHALIQGLKKEKFDLLLVDPNDMCGFVIAHLLGVKYAVFSTGLWYPAEVGAPAPLAYVPEFNSLLTDRMNLLQRMKNTGVYLISRLGVSFLVLPKYERIMQKYNLLPEKSMYDLVHGSSLWMLCTDVALEFPRPTLPNVVYVGGILTKPASPLPEDLQRWVNGANEHGFVLVSFGAGVKYLSEDIANKLAGALGRLPQKVIWRFSGPKPKNLGNNTKLIEWLPQNDLLGHSKIKAFLSHGGLNSIFETIYHGVPVVGIPLFGDHYDTMTRVQAKGMGILLEWKTVTEKELYEALVKVINNPSYRQRAQKLSEIHKDQPGHPVNRTIYWIDYIIRHNGAHHLRAAVHQISFCQYFLLDIAFVLLLGAALLYFLLSWVTKFIYRKIKSLWSRNKHSTVNGHYHNGILNGKYKRNGHIKHEKKVK [UGT8],-0.021,–,53.8,0.353,-0.0434,-0.0716
MKVKMLSRNPDNYVRETKLDLQRVPRNYDPALHPFEVPREYIRALNATKLERVFAKPFLASLDGHRDGVNCLAKHPEKLATVLSGACDGEVRIWNLTQRNCIRTIQAHEGFVRGICTRFCGTSFFTVGDDKTVKQWKMDGPGYGDEEEPLHTILGKTVYTGIDHHWKEAVFATCGQQVDIWDEQRTNPICSMTWGFDSISSVKFNPIETFLLGSCASDRNIVLYDMRQATPLKKVILDMRTNTICWNPMEAFIFTAANEDYNLYTFDMRALDTPVMVHMDHVSAVLDVDYSPTGKEFVSASFDKSIRIFPVDKSRSREVYHTKRMQHVICVKWTSDSKYIMCGSDEMNIRLWKANASEKLGVLTSREKAAKDYNQKLKEKFQHYPHIKRIARHRHLPKSIYSQIQEQRIMKEARRRKEVNRIKHSKPGSVPLVSEKKKHVVAVVK [DCAF13],-2.16,54.8,–,-1.4,-1.29,0.446
MKVTVCFGRTRVVVPCGDGHMKVFSLIQQAVTRYRKAIAKDPNYWIQVHRLEHGDGGILDLDDILCDVADDKDRLVAVFDEQDPHHGGDGTSASSTGTQSPEIFGSELGTNNVSAFQPYQATSEIEVTPSVLRANMPLHVRRSSDPALIGLSTSVSDSNFSSEEPSRKNPTRWSTTAGFLKQNTAGSPKTCDRKKDENYRSLPRDTSNWSNQFQRDNARSSLSASHPMVGKWLEKQEQDEDGTEEDNSRVEPVGHADTGLEHIPNFSLDDMVKLVEVPNDGGPLGIHVVPFSARGGRTLGLLVKRLEKGGKAEHENLFRENDCIVRINDGDLRNRRFEQAQHMFRQAMRTPIIWFHVVPAANKEQYEQLSQSEKNNYYSSRFSPDSQYIDNRSVNSAGLHTVQRAPRLNHPPEQIDSHSRLPHSAHPSGKPPSAPASAPQNVFSTTVSSGYNTKKIGKRLNIQLKKGTEGLGFSITSRDVTIGGSAPIYVKNILPRGAAIQDGRLKAGDRLIEVNGVDLVGKSQEEVVSLLRSTKMEGTVSLLVFRQEDAFHPRELNAEPSQMQIPKETKAEDEDIVLTPDGTREFLTFEVPLNDSGSAGLGVSVKGNRSKENHADLGIFVKSIINGGAASKDGRLRVNDQLIAVNGESLLGKTNQDAMETLRRSMSTEGNKRGMIQLIVARRISKCNELKSPGSPPGPELPIETALDDRERRISHSLYSGIEGLDESPSRNAALSRIMGESGKYQLSPTVNMPQDDTVIIEDDRLPVLPPHLSDQSSSSSHDDVGFVTADAGTWAKAAISDSADCSLSPDVDPVLAFQREGFGRQSMSEKRTKQFSDASQLDFVKTRKSKSMDLGIADETKLNTVDDQKAGSPSRDVGPSLGLKKSSSLESLQTAVAEVTLNGDIPFHRPRPRIIRGRGCNESFRAAIDKSYDKPAVDDDDEGMETLEEDTEESSRSGRESVSTASDQPSHSLERQMNGNQEKGDKTDRKKDKTGKEKKKDRDKEKDKMKAKKGMLKGLGDMFRFGKHRKDDKIEKTGKIKIQESFTSEEERIRMKQEQERIQAKTREFRERQARERDYAEIQDFHRTFGCDDELMYGGVSSYEGSMALNARPQSPREGHMMDALYAQVKKPRNSKPSPVDSNRSTPSNHDRIQRLRQEFQQAKQDEDVEDRRRTYSFEQPWPNARPATQSGRHSVSVEVQMQRQRQEERESSQQAQRQYSSLPRQSRKNASSVSQDSWEQNYSPGEGFQSAKENPRYSSYQGSRNGYLGGHGFNARVMLETQELLRQEQRRKEQQMKKQPPSEGPSNYDSYKKVQDPSYAPPKGPFRQDVPPSPSQVARLNRLQTPEKGRPFYS [PARD3],-0.137,47.7,49.3,0.772,2.38,0.111
MLCGRPRSSSDNRNFLRERAGLSSAAVQTRIGNSAASRRSPAARPPVPAPPALPRGRPGTEGSTSLSAPAVLVVAVAVVVVVVSAVAWAMANYIHVPPGSPEVPKLNVTVQDQEEHRCREGALSLLQHLRPHWDPQEVTLQLFTDGITNKLIGCYVGNTMEDVVLVRIYGNKTELLVDRDEEVKSFRVLQAHGCAPQLYCTFNNGLCYEFIQGEALDPKHVCNPAIFRLIARQLAKIHAIHAHNGWIPKSNLWLKMGKYFSLIPTGFADEDINKRFLSDIPSSQILQEEMTWMKEILSNLGSPVVLCHNDLLCKNIIYNEKQGDVQFIDYEYSGYNYLAYDIGNHFNEFAGVSDVDYSLYPDRELQSQWLRAYLEAYKEFKGFGTEVTEKEVEILFIQVNQFALASHFFWGLWALIQAKYSTIEFDFLGYAIVRFNQYFKMKPEVTALKVPE [ETNK1],-0.0579,53,51.9,-1.17,-1.91,-0.288
